Assay: yeast display, Sf9 membrane polyspecificity reagent, FACS + sequencing; frameworks hold sequencing errors
Outline: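 After 36–48 hours of galactose induction, yeast (Saccharomyces cerevisiae BJ5465) displaying a synthetic nanobody library were stained at 4 °C for 1 hour with 10% biotinylated, detergent-solubilized Sf9 membrane reagent. Streptavidin microbeads enriched the stained cells before FACS sorting into low and high (top ~1%) gates on anti-HA and streptavidin fluorescence. Each clone's polyreactivity label reflects its gate of origin.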

Sequence | polyreactivity (PSR sort gate)
QVQLVESRGGLVQAGGSLRLSYAASGYFFRYNSMGWYRQAPGTERELVAAMSRGGTTYYADSVTGRFTISRDNAMNTVYLQMNSLKPEDTEVYYCAAGRKVQSRRYGYWGQGTQVTVSS | high polyreactivity
QVQLVESGGGLVQAGGRLRLSCAASGFTFGWNAMGWYRQAPGKEREMVASIYSGDSTYYADSVKGRFTISRDNAKNTVYLQMNSLKPEDTAVYYCATAPYVTSRRYGPYEYWGQGTQVTVSS | low polyreactivity
QVQLVESGGGLVQAGGSLRLSCAASGFTFPWNVMGWYRQAPGKEREFVAAISKSAGSTFYADSVKGRFTISRDNAKNTVYLQMNSLKPEDTAVYYCAKPRVPGVHVQEMYYWGQGTQVTVSS | low polyreactivity
QVQLVETGGGLVQAGGSLRLSCAASGRTFTRYAMGWYRQAPGKERELVAAISSSGASTYYADSVKGRFTISRDNAKNTVYLQMNSLKPEDTAVYYCAAKQTRPSGFGYWGQGTQVTVSS | high polyreactivity
QVQLVESGGGLVQAGGSLRLSCAASGRIFIGYAMGWYRQAPGKERELVAAISWGGGSTFYADSVKGRFTISRDNAKNTVYLQMNSLKPEDTAVYYCNKVYRQRVVKGGYWGQGTQVTVSS | high polyreactivity
QVQLVESGGGVVQAGGSLRLSCAASGSIFPYNAMGWYRPAPGKERELVAVITSSGGSTYYADSVKGRFTISRDNAKNTVYLQMNSLKPEDTAVYYVAARGYNYYFGGYDYWGQGTQVTVSS | low polyreactivity
QVQRVESGGGLVQAGGRLRLSCAASGFIFSYNAMGWYRQAPGKERELVAAISWSGVSTYYADSVMGRFTISRDNAKNTVYLQMNSLKPEDTAVYYCSAVRLRYATPVQFNPYIFGYWGQGTQVTVSS | high polyreactivity
QVQLVESGGGLVQAGGSLRLSCAASGFTQEDYTMGWYRQAPGQERELVARITSGGSTNYADSVKGRFTISRDNGKNTDYLQMNSLKADETAVYYCNARYAWINMDYWGQGTQVTVSS | low polyreactivity
QVQLVESGGGLVQAGGSLRLSCAASGSIFAYYAMGWYREAPGKERELVADITSSGGITYSADSVKGRFTISRDNAKNTVYLLMNSLKPEDTAGYYCNADSWAIGGGSYPYDYWGQGTKVTVSS | low polyreactivity
QVQLVESGGGLVQAGGSLRLSCAASGRNFGTNAMGWYRQAPGKERELVASIDLSADSTYYADSVKGRFTISRDNAKNTVYLQMNSLKPEDTAVYYCNKDGYPWPPNLDYWGQGTQVTVSS | low polyreactivity
QVQLVESGGGLVQAGGSLRLSCAASGRIFQWYAMGWYRQAPGKERELVATISDGDSTNYADSVKGRFTISRDNAKNTVYFQMNSLKPEDTAVYYCAALDIYYDSYYWYDYWGQGTQVTVSS | high polyreactivity
QVQLVESGGGLVQAGGSLRLSCAASGSNFGYYAMAWYRQAPGKERELVAVITWNTGNTYYADSVKGRFTISRDNAKNTVYLQMNRLKPEDTAVYYCAADQTGWGDTYDYWGQGTEVTVSS | low polyreactivity
QVQLVESGGGLVQAGGSLRLSCAASGLILANYAMGWYRQAPGKDRELVAAISSSGGSTYYADSVKGRFTISRDNAKNTVYLQMNSLKPEDTAVYYCAAYPLYRRRWTGDYWGQGTQVTVSS | high polyreactivity
QVQLVESGGGLVQAGGSLRLSCAASGSTLGRYAMGWYRQAPGKERELVASITWSDDSTYYADSVKGRFTISRDNAKNTVYLQMNSLKPEDTAVYYCNAPPGTFQWQGHSDYWGQGTQVTVSS | low polyreactivity
QVQLVESGGGLVQAGGSLRLSCAASGRTFGKYAMGWYRQAPGKERELVAAITNSGGSTYYADSVKGRFTISRDNAKNTVYLQMNSLKPEDTAVYYCNRLGYRGTSKLNHMGYWGQGTQVTVSS | high polyreactivity
QVQLVESGGGLVQAGGSLRLSCAASGRTFGPYAMGWYRQAPGKDSDLVATISWNGGSTYYADSVKGRFTISRDYAKNSVYLQMNSLKPEDTAVYYCAARHWSQSWKYGYWGQGTQVTVSS | high polyreactivity
QVQLVESGGGLVQAGGSLRLSCAASGSTFTYNAMGWYRQAPGKERELVAAISWSGGRTYYADSVKGRFTISRDNATNTVYLQMNSLKPEDTAVYSCAAKYRYSTYSFPYDYWGQGTQVTVSS | high polyreactivity
QVQLVESGGGLVQAGGSLRLSCAASGNIFWSNAMGWYRQAPGKERELVAGITSSTGSTYYADSVKGRFTISRDNAKNTVYLQMNSLKPEDTAVYSCAARYRYYPVTTRGYYWGQGTQVTVSS | high polyreactivity
QVQLVESGGGLVQAGGSLRLSCAASGSILQRYAMGWYRQAPGKERELVAAISTSGSSTYYADSVKGRFTISRDNAKNTVYLQMNSLKPEDTAVYYCAAKSRKFDYWGQGTQVTVSS | high polyreactivity
QVQLVESGGGLVQAGGSLRLSCAASGRIFGLYAMGWYRQAPGKEREFVAAIRLSGGSTYYADSVKGRFTISRDNAKNTVYLQMISLKPEDTAVYYCAADLSYNRGRGSRVYYWGQGTQVTVSS | high polyreactivity
QVQLVESGGGLVQAGGSLRLSCAASGITFGDYDMGWYRPAPGKERELVAAITYDGGTTYYADSVKGRFTISRDNAKNTVYLQMHSLKPEDTAVYYCNADSYRGLYDYWGQGTQVTVSS | low polyreactivity

From the nanobody polyreactivity screen of Harvey et al. (2022)
